# T1: human 5T4 expressed on CHO-S cells (CHO-h5T4 cells) (human, UniProt Q13641 32-355)
# T1 sequence: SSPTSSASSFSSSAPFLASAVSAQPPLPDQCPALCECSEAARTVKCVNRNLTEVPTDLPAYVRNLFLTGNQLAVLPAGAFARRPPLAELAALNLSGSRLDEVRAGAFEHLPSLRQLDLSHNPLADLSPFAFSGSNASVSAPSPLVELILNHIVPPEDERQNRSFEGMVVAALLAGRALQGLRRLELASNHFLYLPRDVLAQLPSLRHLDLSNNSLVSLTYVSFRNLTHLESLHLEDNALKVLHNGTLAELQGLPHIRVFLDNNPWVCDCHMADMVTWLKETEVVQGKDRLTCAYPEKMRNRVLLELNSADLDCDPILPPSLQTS
# T2: mouse 5T4 expressed on CHO-S cells (CHO-m5T4 cells) (mouse, UniProt Q9Z0L0 32-361)
# T2 sequence: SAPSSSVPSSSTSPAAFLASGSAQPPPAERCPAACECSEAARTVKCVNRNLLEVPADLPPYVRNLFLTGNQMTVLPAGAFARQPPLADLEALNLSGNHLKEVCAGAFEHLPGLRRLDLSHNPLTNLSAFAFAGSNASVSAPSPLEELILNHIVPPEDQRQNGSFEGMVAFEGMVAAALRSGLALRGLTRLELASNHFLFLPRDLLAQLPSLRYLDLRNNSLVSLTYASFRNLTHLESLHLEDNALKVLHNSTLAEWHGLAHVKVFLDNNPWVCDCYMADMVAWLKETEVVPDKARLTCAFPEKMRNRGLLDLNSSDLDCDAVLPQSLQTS
# T3: h5T4-His protein (human, UniProt Q13641 32-355, limits assumed)
# T3 construct: also called His-tagged human 5T4 protein; not shown: His tag
# T3 sequence (looked up): T1 sequence
# T4: His-tagged 5T4 protein of human (h5T4, ACRO Biosystems Inc., Cat #: TPG-H52E5) (human, UniProt Q13641 32-355)
# T4 construct: Bought protein; not shown: His tag
# T4 sequence (looked up): T1 sequence
# T5: His-tagged 5T4 protein of monkey (fas5T4, ACRO Biosystems Inc., Cat #: TPG-C52H3) (monkey, UniProt Q4R8Y9 35-355)
# T5 construct: Bought protein
# T5 sequence: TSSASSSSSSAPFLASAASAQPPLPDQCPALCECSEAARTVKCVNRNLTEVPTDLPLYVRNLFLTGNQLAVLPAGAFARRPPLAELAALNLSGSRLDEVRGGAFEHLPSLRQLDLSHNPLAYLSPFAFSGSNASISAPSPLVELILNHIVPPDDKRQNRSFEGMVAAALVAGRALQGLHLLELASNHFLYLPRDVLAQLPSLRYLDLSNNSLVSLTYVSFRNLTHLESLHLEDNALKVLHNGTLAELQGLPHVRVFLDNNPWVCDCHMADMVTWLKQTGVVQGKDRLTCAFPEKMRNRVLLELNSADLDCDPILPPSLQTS
# T6: His-tagged 5T4 protein of mouse (m5T4, ACRO Biosystems Inc., Cat #: TPG-M52H3) (mouse, UniProt Q9Z0L0 32-361, limits assumed)
# T6 construct: Bought protein; not shown: His tag
# T6 sequence (looked up): T2 sequence
# T7: dog 5T4 expressed on CHO-S cells (CHO-d5T4 cells) (dog)
# T7 chain: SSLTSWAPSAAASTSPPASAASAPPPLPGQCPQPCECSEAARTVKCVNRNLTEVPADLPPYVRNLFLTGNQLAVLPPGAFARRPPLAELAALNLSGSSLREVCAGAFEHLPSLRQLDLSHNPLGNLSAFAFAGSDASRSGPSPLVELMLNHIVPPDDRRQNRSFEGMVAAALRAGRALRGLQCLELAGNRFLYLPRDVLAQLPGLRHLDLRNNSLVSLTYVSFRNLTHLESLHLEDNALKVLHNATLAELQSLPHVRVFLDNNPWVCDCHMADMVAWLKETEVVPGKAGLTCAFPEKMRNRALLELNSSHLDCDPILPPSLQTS
# T8: monkey (Macaca fascicularis) 5T4 expressed on CHO-S cells (CHO-fas5T4 cells) (monkey (Macaca fascicularis), UniProt Q4R8Y9 35-355)
# T8 construct: also called monkey 5T4
# T8 sequence: T5 sequence
# B1: 35C6 (antibody, V domains shown)
# VH: QVQLVQSGGGLVQPGGSLRLSCAASGFTFSRNAMSWVRQAPGKGLEWVSAISGSGGSTHDADSVKGRFTISRDNSKNTLYLEMNSLRAEDTAVYYCAKDGYSSLWDYHYYGMDVWGQGTTVTVSS
# VL: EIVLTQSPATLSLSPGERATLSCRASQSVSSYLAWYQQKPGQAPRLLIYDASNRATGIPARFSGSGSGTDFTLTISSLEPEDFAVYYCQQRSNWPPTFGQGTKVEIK
# notes: also called anti-5T4 antibody 35C6
# B2: 32E3 (antibody, V domains shown)
# VH: QVQLVQSGGGLVQPGGSLRLSCVVSGFTVSSDYMSWVRQAPGKGLEWVSIIYSGGSTFYADSVKGRFTISRDNSKNTLFLQMNSLRAEDTAVYYCARDRDCHGWGSYYNRWFDPWGQGTLVTVSS
# VL: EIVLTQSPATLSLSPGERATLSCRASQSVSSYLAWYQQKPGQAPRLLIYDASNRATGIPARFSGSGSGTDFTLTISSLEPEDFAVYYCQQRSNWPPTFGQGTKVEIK
# notes: also called anti-5T4 antibody 32E3
# B3: 35B12 (antibody, V domains shown)
# VH: QVQLQESGPRLVKPSETLSLTCTVSGGSISSNDWSWIRQPPGKGLEWIGEISYSGITNYNPSLKSRVSISVETSKNHFSLNLSSVTAADTAVYYCATAGGSSGWYDYWFDPWGQGTLVTVSS
# VL: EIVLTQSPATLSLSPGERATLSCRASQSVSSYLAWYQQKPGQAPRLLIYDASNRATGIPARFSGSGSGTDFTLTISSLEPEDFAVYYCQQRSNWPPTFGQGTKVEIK
# notes: also called anti-5T4 antibody 35B12
# B4: 31G4 (antibody, V domains shown)
# VH: QVQLVQSGGGLVQPGGSLRLSCAASGFTFKSYWMHWVRQAPGKGLEWVSRINFDGSSITYADSVKGRFTISRDNAKNTLYLQMNSLSAEDTAVYYCARPLTYYEILTGFSQYFDFWGQGTLVTVSS
# VL: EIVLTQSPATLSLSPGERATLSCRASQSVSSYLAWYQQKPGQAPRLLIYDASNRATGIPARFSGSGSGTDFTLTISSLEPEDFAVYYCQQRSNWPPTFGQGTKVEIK
# notes: also called anti-5T4 antibody 31G4
# B5: 32G8 (antibody, V domains shown)
# VH: QVQLQESGPGLLQPSETLSLTCFVSGASINSSGHYWGWIRQPPGKGLEWIGSIYFSGNTNYNPSLKSRVTIAVDTSKNQFSLKLSSVTAADTAVYYCVRRNGRYCSTISCYDDYWGQGTLVTVSS
# VL: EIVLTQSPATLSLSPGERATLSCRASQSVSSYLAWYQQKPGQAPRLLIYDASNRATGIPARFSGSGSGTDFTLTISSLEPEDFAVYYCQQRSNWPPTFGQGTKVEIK
# notes: also called anti-5T4 antibody 32G8
# B6: MAB2 analog-SI (antibody, V domains shown)
# VH: QVQLQQPGAELVKPGASVKMSCKASGYTFTSYWITWVKQRPGQGLEWIGDIYPGSGRANYNEKFKSKATLTVDTSSSTAYMQLSSLTSEDSAVYNCARYGPLFTTVVDPNSYAMDYWGQGTSVTVSS
# VL: DVLMTQTPLSLPVSLGDQASISCRSSQSIVYSNGNTYLEWYLQKPGQSPKLLIYKVSNRFSGVPDRFSGSGSGTDFTLKISRVEAEDLGVYYCFQGSHVPFTFGSGTKLEIK
# notes: MAB2 is a humanized IgG1 monoclonal antibody targeting 5T4
# Molecular target: T1, human 5T4 expressed on CHO-S cells …
# Assay: flow cytometry, CHO-h5T4 cells
# Method: (§1) CHO-h5T4 cells, CHO-m5T4 cells, CHO-fas5T4 cells or CHO-d5T4 cells were transferred to a 96-well plate at a density of 2×10⁵ cells/well respectively. The anti-5T4 antibodies were added to the 96-well plate, and incubated at 4° C. for 30 min. Then, the cells were incubated with the secondary antibody anti-hlgG-Fc-Alex Flour 647 (RL1-H) (Jackson ImmunoResearch Laboratories, Inc., Cat #: 109-606-170) at 4° C. in the dark for 15 minutes before flow cytometry analysis.
row,Percentage of Positive Cells,Binder
1,67.3%,B1
2,65.8%,B2
3,78%,B3
4,79.3%,B4
5,61.5%,B5

# Molecular target: T2, mouse 5T4 expressed on CHO-S cells …
# Assay: flow cytometry, CHO-m5T4 cells
# Method: as §1
Percentage of Positive Cells,binding result,Binder
63.3%,–,B1
52.2%,–,B2
54.1%,–,B3
1.4%,no binding,B4
0.7%,no binding,B5

# Molecular target: T3, h5T4-His protein
# Assay: epitope binding assay, h5T4-His captured; binder = analyte 2; competitor (analyte 1): 32G8
# Method: (§2) Epitope binding assays were performed using ForteBio Octet system to determine whether two anti-5T4 antibodies target the same or overlapping epitopes. 1×HBS-EP+buffer (10 mM 4-(2-hydroxyethyl)-1-piperazineethanesulfonic acid (HEPES), 150 mM NaCl, 3 mM ethylenediaminetetraacetic acid (EDTA) and 0.05% P20, pH7.4) diluted from HBS-EP+buffer (10×) was used as the running buffer throughout the experiment. About 50 RU of h5T4-His protein was captured at a flow rate of 10 μL/min, and 200 nM of the tested antibody was injected at a flow rate of 30 μL/min to bind the ligand. Another comparison antibody was injected under the same conditions to determine whether the binding of different antibodies interfered with each other. The binding time was 180 s for each antibody.
# (§3) The binding value of each antibody was obtained using Data Analysis HT 12.0. To quantify the interference of one antibody binding to another, a binding ratio was calculated to compare each pair of antibodies. The binding ratio is defined as the binding value of the second antibody (analyte 2), divided by the binding value of the first antibody (analyte 1). […] In general, antibody pairs that interfere with each other have the same or overlapping epitopes.
row,binding ratio,Binder
1,0.98,B1
2,-0.06,B2
3,0.91,B3
4,1.01,B4
5,0.11,B5

# Molecular target: T4, His-tagged 5T4 protein of human (h5T4, …)
# Assay: SPR (Biacore 8K), antibody captured on Protein A chip, His-tagged 5T4 as analyte
# Method: (§4) Purified anti-5T4 antibodies were diluted to 2 μg/mL and then injected into the Biacore™ 8K biosensor at 10 μL/min for about 50 seconds to achieve a desired protein density (e.g., about 50 response units (RU)). His-tagged 5T4 protein at a concentration of 200 nM was then injected at 30 μL/min for 180 seconds. Dissociation was monitored for 400 seconds. The chip was regenerated after the last injection of each titration with Glycine (pH 2.0), 30 μL/min for 30 seconds. For ISO control, an antibody targeting an irrelevant target protein was used.
# (§5) As a person of ordinary skill in the art would understand, the same method with appropriate adjustments for parameters (e.g., antibody concentration) was performed for each tested antibody.
Kd,koff,kon,Binder
19.2 nM,0.00315 s⁻¹,164000 M⁻¹ s⁻¹,B1
147 nM,0.00661 s⁻¹,44900 M⁻¹ s⁻¹,B2
22.5 nM,0.00292 s⁻¹,130000 M⁻¹ s⁻¹,B6
122 nM,0.0215 s⁻¹,176000 M⁻¹ s⁻¹,B3
2.68 nM,0.000397 s⁻¹,148000 M⁻¹ s⁻¹,B4
42.7 nM,0.00529 s⁻¹,124000 M⁻¹ s⁻¹,B5

# Molecular target: T5, His-tagged 5T4 protein of monkey …
# Assay: as above
# Method: as §4, §5
Kd,koff,kon,Binder
116 nM,0.00297 s⁻¹,25600 M⁻¹ s⁻¹,B2
55.1 nM,0.00545 s⁻¹,99000 M⁻¹ s⁻¹,B6
198 nM,0.0219 s⁻¹,111000 M⁻¹ s⁻¹,B3
10.1 nM,0.00101 s⁻¹,100000 M⁻¹ s⁻¹,B4
146 nM,0.0143 s⁻¹,98000 M⁻¹ s⁻¹,B5

# Molecular target: T6, His-tagged 5T4 protein of mouse (m5T4, …)
# Assay: as above
# Method: as §4, §5
Kd,koff,kon,binding result,Binder
1.31 nM,0.000407 s⁻¹,310000 M⁻¹ s⁻¹,–,B1
–,–,–,no binding (tested: 200 nM),B6
72.2 nM,0.00366 s⁻¹,50700 M⁻¹ s⁻¹,–,B3
–,–,–,no binding (tested: 200 nM),B4
–,–,–,no binding (tested: 200 nM),B5

# Molecular target: T3, h5T4-His protein
# Assay: epitope binding assay, h5T4-His captured; binder = analyte 2; competitor (analyte 1): 35B12
# Method: as §2, §3
row,binding ratio,Binder
1,0.03,B1
2,0.97,B2
3,0,B3
4,1.01,B4
5,0.96,B5

# Molecular target: T7, dog 5T4 expressed on CHO-S cells …
# Assay: flow cytometry, CHO-d5T4 cells
# Method: as §1
Percentage of Positive Cells,binding result,Binder
71.1%,–,B1
53.7%,–,B2
76%,–,B3
1.1%,no binding,B4
62.8%,–,B5

# Molecular target: T3, h5T4-His protein
# Assay: epitope binding assay, h5T4-His captured; binder = analyte 2; competitor (analyte 1): 31G4
# Method: as §2, §3
row,binding ratio,Binder
1,0.81,B1
2,0.8,B2
3,0.87,B3
4,0.04,B4
5,0.85,B5

# Molecular target: T8, monkey (Macaca fascicularis) 5T4 …
# Assay: flow cytometry, CHO-fas5T4 cells
# Method: as §1
row,Percentage of Positive Cells,Binder
1,55.7%,B1
2,51.5%,B2
3,52.1%,B3
4,58.8%,B4
5,52.6%,B5

# Molecular target: T3, h5T4-His protein
# Assay: epitope binding assay, h5T4-His captured; binder = analyte 2; competitor (analyte 1): 35C6
# Method: as §2, §3
row,binding ratio,Binder
1,0.02,B1
2,0.96,B2
3,0.04,B3
4,1.05,B4
5,1.01,B5

# Molecular target: T3, h5T4-His protein
# Assay: epitope binding assay, h5T4-His captured; binder = analyte 2; competitor (analyte 1): 32G1
# Method: as §2, §3
row,binding ratio,Binder
1,0.96,B1
2,0.83,B2
3,0.05,B3
4,1.04,B4
5,1.01,B5

# Molecular target: T3, h5T4-His protein
# Assay: epitope binding assay, h5T4-His captured; binder = analyte 2; competitor (analyte 1): 32E3
# Method: as §2, §3
row,binding ratio,Binder
1,0.93,B1
2,-0.01,B2
3,0.97,B3
4,1.01,B4
5,0.04,B5
